What was measured:
[1] = molecular target: T1, full length Ku80 (Homo sapiens, UniProt P13010); test: GST pull-down of Ku80 from biotinylated bacterial extract by GST-Ku70 derivatives; assay type: binding; settings: GST-fusion on glutathione agarose beads, biotinylated bacterial extract containing Ku80, seven NETN washes, streptavidin-HRP blot
T1 construct: incubated with biotinylated bacterial cell extracts containing full length Ku80; made in house; host or cells: E. coli BL21 pLysS
Description: (§1) Full length Ku70 and Ku80 were cloned in frame with the glutathione binding domain of human glutathione S-transferase (GST) by sub-cloning into pGEX2TKP (a derivative of […] by Pharmacia). Deletion mutants of Ku70 and Ku80 were cloned by Pfu polymerase amplification and cloning into pGEX2TKP. Expression from all pGEX2TKP constructs was carried out in either DH5α or DS941 strains of E. coli. Bacterial cell extracts were produced by sonication in Phosphate-buffered saline (PBS; 138 mM NaCl, 3 mM KCl, 10 mM Phosphate buffer pH 7.4) containing 1% Triton-X100 (Sigma) and protease inhibitor tablets (Boehringer). GST-fusion proteins were purified by passing bacterial lysates over Glutathione Agarose beads (Pharmacia) and washing extensively in PBS containing 1% Triton-X100 and then in PBS alone. The beads/proteins were stored at −80° C. prior to use.
Ku70 and Ku80 were cloned into pET30a (Novagen) to generate a N-terminal hexa-Histidine tag and expressed at low levels in E. coli (BL21 pLysS). […]
(§2) In a complementary approach to the yeast 2-hybrid technique, the inventors used a “pull-down” assay to detect interactions between recombinant deletion derivatives of the two Ku subunits. […] Interacting proteins were detected by probing these western blots with streptavidin that was conjugated to horse radish peroxidase (HRP). […]

[2] = molecular target: T2, full length Ku70 (Homo sapiens, UniProt P12956); test: GST pull-down of Ku70 from biotinylated bacterial extract by GST-Ku80 derivatives; assay type: binding; settings: GST-fusion on glutathione agarose beads; biotinylated bacterial extract containing Ku70; seven NETN washes; streptavidin-HRP blot
T2 construct: incubated with biotinylated bacterial cell extracts containing full length Ku70; made in house; host or cells: E. coli BL21 pLysS
T2 sequence (P12956 whole entry, the tested form may be a part): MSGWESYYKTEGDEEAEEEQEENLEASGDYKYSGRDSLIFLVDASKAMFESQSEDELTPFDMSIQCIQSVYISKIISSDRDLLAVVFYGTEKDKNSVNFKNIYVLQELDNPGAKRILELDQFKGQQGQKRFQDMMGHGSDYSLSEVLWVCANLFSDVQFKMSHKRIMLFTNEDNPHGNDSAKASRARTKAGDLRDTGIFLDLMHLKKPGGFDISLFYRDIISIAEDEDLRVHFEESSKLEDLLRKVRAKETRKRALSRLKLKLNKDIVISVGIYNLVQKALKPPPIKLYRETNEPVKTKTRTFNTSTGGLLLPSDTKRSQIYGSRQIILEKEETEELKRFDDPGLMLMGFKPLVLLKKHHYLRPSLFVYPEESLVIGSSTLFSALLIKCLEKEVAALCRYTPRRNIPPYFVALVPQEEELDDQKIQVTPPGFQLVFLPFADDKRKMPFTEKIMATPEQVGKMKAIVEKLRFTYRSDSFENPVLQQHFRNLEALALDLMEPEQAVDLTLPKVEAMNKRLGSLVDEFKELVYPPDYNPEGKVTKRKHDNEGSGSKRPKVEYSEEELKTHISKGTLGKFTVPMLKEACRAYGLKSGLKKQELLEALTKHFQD
Description: as §1, with “use. […]” for “use.”
as §2
The inventors tested a range of Ku80 deletion derivatives expressed as GST-fusions for their ability to interact with full-length Ku70. […]

T1 sequence (P13010 whole entry, the tested form may be a part): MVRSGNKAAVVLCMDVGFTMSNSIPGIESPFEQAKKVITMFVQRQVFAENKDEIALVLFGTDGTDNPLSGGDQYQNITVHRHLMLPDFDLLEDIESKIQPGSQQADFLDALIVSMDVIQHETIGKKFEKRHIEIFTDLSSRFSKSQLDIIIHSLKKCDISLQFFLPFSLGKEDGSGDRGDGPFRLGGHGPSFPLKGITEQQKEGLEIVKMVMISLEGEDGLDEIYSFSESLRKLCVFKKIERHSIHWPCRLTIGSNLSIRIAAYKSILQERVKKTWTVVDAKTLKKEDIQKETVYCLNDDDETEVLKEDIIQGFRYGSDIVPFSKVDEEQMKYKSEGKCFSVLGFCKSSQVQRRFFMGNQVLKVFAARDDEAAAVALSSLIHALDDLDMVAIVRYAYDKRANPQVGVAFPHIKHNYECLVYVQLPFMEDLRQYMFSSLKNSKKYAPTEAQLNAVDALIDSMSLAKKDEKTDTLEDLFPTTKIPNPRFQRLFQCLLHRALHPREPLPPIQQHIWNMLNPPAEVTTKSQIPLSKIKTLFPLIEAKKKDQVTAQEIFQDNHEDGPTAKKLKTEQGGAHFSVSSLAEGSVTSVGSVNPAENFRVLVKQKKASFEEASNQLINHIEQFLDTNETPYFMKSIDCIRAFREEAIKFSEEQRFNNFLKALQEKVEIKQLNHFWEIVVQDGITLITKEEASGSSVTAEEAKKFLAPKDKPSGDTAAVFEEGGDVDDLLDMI

Substance	interaction with full-length Ku80 [1]	interaction with full-length Ku80 ([1]; listed as Full-length Ku70)	interaction with full-length Ku70 [2]
GST-Ku70: full length human Ku70 fused to glutathione S-transferase, expressed in E. coli	only a single species is retained efficiently on the beads	binds to Ku80 efficiently	–
GST-Ku80: full length human Ku80 fused to glutathione S-transferase, expressed in E. coli	–	–	only a single species is retained efficiently on the beads

Reference: patent US6753151B1, “Interactions of Ku polypeptides and applications thereof” (Kudos Pharmaceuticals Limited, priority 1999, dated 2004)
